Source: publication PMC4673829, “Chemical basis for the recognition of trimethyllysine by epigenetic reader proteins” (Nature Communications, 2015)
Ends that are not written are not given here. Me3 = trimethyllysine (Kme3)

T1: TAF3 PHD domain (for ITC)
T1 chain: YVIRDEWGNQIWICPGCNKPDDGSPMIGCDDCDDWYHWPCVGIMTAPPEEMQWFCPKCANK

T2: BPTF PHD zinc finger
T2 chain: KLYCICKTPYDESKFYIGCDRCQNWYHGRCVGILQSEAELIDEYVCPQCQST

T3: JMJD2A tudor domains
T3 construct: JMJD2A (KDM4A), tudor domains; source: E. coli Rosetta BL21 DE3 pLysS, purified (Ni-NTA, TEV protease, Superdex 75)
T3 sequence (O75164 whole entry, species assumed, looked up): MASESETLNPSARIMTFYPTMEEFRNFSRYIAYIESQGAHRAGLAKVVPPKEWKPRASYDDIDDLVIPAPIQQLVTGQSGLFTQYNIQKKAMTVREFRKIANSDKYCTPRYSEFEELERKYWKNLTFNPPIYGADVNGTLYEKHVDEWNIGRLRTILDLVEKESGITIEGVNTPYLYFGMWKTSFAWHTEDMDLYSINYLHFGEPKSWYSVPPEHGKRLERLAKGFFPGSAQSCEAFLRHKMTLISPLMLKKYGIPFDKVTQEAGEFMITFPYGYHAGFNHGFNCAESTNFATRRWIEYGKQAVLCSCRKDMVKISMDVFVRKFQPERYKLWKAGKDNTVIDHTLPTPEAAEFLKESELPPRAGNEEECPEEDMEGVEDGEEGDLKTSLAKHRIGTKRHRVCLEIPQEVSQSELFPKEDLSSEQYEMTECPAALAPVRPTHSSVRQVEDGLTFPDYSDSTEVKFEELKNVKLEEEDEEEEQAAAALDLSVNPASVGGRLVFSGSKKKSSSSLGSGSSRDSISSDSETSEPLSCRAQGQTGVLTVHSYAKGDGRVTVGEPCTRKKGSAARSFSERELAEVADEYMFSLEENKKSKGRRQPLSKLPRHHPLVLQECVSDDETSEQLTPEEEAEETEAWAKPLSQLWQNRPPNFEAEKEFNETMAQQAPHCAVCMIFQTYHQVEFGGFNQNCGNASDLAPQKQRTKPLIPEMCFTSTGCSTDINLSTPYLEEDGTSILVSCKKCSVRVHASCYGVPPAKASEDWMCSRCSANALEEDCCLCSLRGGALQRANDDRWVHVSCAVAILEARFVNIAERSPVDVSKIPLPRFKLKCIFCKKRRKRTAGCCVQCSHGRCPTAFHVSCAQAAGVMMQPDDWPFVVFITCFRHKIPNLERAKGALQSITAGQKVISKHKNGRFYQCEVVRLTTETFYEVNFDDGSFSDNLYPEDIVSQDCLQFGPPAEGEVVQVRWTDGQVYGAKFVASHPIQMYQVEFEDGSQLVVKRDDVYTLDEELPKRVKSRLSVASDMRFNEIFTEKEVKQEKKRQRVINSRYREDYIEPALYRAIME

B1: 10-mer H3G4 histone peptide (peptide)
peptide: ARTGQTARKS-OH
notes: source: synthetic peptide (solid-phase synthesis, Fmoc chemistry, preparative HPLC)
B2: 10-mer H3C4me3 histone peptide (peptide)
chain: ARTXQTARKS
modifications: Cme3 (neutral carba analogue of trimethyllysine, tert-butyl in place of trimethylammonium) at position 4; carboxylic acid at the C terminus
B3: 10-mer H3K4me3 histone peptide (peptide)
peptide: ARTK(Me3)QTARKS-OH
notes: histone H3, residues 1-10, with Kme3 at the fourth position; Peptides appear as TFA salts; also called H3(1-10)K4me3; source: synthetic peptide (solid-phase synthesis, Fmoc chemistry, preparative HPLC)

Key:
Conditions in all cases: both partners purified
[1] = target: T1, TAF3 PHD domain (for ITC); assay: ITC; H3G4 (5 mM) titrated to JARID1A (330 μM), H3G4 (3 mM) titrated to TAF3 (200 μM); 19 injections; Microcal Auto-iTC200; one set of sites model
[2] = target: T4, JARID1A PHD3 domain (for ITC); assay: ITC; 350–600 μM H3K4me3 or H3C4me3 peptide titrated to 25–40 μM protein (JMJD2A–H3C4me3: 3 mM peptide to 200 μM JMJD2A); 19 injections; Microcal Auto-iTC200; one set of sites model; 5–7 repeats
T4 construct: JARID1A (KDM5A), PHD3 domain; cleavage of the tag is told only for JMJD2A, SGF29 and TAF3; also called PHD zinc finger of JARID1A; source: E. coli Rosetta BL21 DE3 pLysS, purified (Ni-NTA or glutathione sepharose beads, Superdex 75)

BPTF PHD zinc finger = target: T2, BPTF PHD zinc finger; assay: as above
[3] = target: T1, TAF3 PHD domain (for ITC); assay: as above
[4] = target: T5, SGF29 tandem tudor domain (for ITC); assay: as above
T5 construct: SGF29, tandem tudor domain; the crystallisation construct is residues 115-293 of human SGF29; source: E. coli Rosetta BL21 DE3 pLysS, purified (Ni-NTA, TEV protease, Superdex 75)

JMJD2A tudor domains = target: T3, JMJD2A tudor domains; assay: as above

T5 sequence (Q96ES7 whole entry, the tested form may be a part): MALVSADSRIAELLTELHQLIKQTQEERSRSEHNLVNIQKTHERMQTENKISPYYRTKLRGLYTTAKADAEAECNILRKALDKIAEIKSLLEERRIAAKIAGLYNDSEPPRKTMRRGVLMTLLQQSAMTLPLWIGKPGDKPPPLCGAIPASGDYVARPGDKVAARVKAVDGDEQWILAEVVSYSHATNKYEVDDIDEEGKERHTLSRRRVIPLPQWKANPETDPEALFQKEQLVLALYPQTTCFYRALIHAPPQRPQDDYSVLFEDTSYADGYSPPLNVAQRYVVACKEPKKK

Binder	Kd [1]	dH [1]	Kd [2]	dH [2]	Kd (BPTF PHD zinc finger)	dH (BPTF PHD zinc finger)	Kd [3]	dH [3]	Kd [4]	dH [4]	Kd (JMJD2A tudor domains)	dH (JMJD2A tudor domains)
B1	36000 nM	-2.5 kcal/mol	–	–	–	–	–	–	–	–	–	–
B2	–	–	340 nM	-7.4 ± 0.1 kcal/mol	760 nM	-10 ± 0.2 kcal/mol	790 nM	-5.2 ± 0.1 kcal/mol	1400 nM	-7.9 ± 0.1 kcal/mol	16000 nM	-8.1 ± 0.1 kcal/mol
B3	–	–	–	–	490 nM	-13.1 ± 0.1 kcal/mol	24 nM	-10.9 ± 0.1 kcal/mol	–	–	–	–
